Results published in patent US20120129766A1 (IRM, published 2012).
Changes are numbered by the printed parent chain. In names and notes the source's numbering stands.

T1: human β-klotho (human, UniProt Q86Z14 1-1044)
T1 sequence (looked up): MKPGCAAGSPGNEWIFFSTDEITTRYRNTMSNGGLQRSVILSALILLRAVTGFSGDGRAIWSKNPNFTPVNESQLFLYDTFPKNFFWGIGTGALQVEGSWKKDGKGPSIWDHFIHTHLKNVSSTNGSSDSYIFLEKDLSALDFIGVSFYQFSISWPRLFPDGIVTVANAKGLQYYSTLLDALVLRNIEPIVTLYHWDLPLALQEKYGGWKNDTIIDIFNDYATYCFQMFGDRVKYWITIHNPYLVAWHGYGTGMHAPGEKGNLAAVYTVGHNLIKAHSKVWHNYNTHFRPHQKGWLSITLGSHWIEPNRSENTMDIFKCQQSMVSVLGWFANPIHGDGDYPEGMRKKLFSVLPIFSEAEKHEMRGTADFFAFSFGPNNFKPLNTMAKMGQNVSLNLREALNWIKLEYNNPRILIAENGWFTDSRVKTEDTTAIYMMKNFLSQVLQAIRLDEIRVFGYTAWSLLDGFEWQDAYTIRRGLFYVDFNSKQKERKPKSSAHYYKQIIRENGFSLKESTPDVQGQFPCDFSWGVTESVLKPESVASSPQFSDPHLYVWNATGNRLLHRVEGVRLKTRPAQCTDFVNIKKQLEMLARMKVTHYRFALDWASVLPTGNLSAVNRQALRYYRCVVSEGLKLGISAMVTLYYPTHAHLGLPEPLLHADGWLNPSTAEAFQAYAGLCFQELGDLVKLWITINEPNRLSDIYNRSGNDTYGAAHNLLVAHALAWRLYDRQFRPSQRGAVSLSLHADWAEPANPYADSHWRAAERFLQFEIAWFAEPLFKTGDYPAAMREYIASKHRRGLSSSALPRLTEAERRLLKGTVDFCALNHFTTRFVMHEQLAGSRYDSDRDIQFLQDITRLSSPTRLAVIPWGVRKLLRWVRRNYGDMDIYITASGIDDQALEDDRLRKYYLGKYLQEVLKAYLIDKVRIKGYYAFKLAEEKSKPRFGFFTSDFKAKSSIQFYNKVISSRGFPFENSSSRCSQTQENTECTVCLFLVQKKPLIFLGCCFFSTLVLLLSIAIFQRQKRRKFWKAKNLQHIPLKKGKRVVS

B1: hFGF21(33-209)-V86 (ligand)
chain: DSSPLLQFGGQVRQRYLYTDDAQQTEAHLEIREDGTVGGAADQSPESLLQLRALRPGVIQILGVRTSRFLCQRPDGALYGSLHFDPEACSFRELLLEDGYNVYQSEAHGLPLHLPGNRSPHKDPAPRGPARFLPLPGLPPAPPEPPGILAPQPPDVGSSDPLAMVGPSQGRSPSYAS
B2: hFGF21(33-209)-WT-R154C-40 kDa bPEG-MA (ligand)
chain: B1 chain with R52K, R55K, R65K, R118K, K122C, P142L, A163S
modifications: 40 kDa branched maleimido-PEG on Cys 154 (numbered on SEQ ID NO:1)
B3: hFGF21(33-209)-WT-R154C (ligand)
chain: B1 chain with R52K, R55K, R65K, R118K, K122C, P142L, A163S
B4: hFGF21(33-209)-V87 (ligand)
chain: B1 chain with Q23C, G116C
B5: hFGF21(33-209)-V55 (ligand)
chain: DSSPLLQFGGQVRQRYLYTDDAQQTEAHLEIREDGTAGGAAHQSPESLLELKALKPGVIQILGVKTSRFLCQKPDGALYGSLHFDPEACSFRELLLENGYNVYQSEAHGLPLHLPGNRSPHRDPASQGPARFLPLPGLPPAPPEPPGILAPQPPDVGSSDPLAMVGPSQGRSPSYAS
B6: hFGF21(33-209)-WT-AM (ligand)
chain: B1 chain with R52K, R55K, R65K, R118K, K122R, A163S
B7: hFGF21(33-209)-V57 (ligand)
chain: B5 chain with A37V, E50Q, T66A, K73R, A107T, G170A
B8: hFGF21(33-209)-V64 (ligand)
chain: B5 chain with Q23C, A37V, H42D, E50Q, K73R, A77T, A107T, G116C, Q127R, G170A
B9: hFGF21(33-209)-V82 (ligand)
chain: B5 chain with A37V, H42D, A77T, N98D, R122C, P142L
B10: hFGF21(33-209)-V59 (ligand)
chain: B5 chain with Q23C, A37V, K73R, G116C
B11: hFGF21(33-209)-V73-N-40 kDa bPEG-AL (ligand)
chain: B5 chain with Q24E, A37V, N98E, S126P, P142L
modifications: 40 kDa branched PEG (aldehyde reagent) on the N-terminal amine
B12: hFGF21(33-209)-V56 (ligand)
chain: B5 chain with A37V, E50Q, T66A, A107T, R118K, G170A
B13: hFGF21(33-209)-V73 (ligand)
chain: B5 chain with Q24E, A37V, N98E, S126P, P142L
B14: hFGF21(33-209)-V80 (ligand)
chain: B5 chain with A37V, H42D, A77T, N98D, R122C, S126P, P142L, G170A
B15: hFGF21(33-209)-V84 (ligand)
chain: B5 chain with A37V, H42D, K73R, A77T, N98D, A107T, R122C, Q127R, P142L, G170A
B16: hFGF21(33-209)-V81 (ligand)
chain: B5 chain with A37V, N98D, R122C, P142L
B17: hFGF21(33-209)-V85 (ligand)
chain: B5 chain with A37V, N98E, R122C, S126P, P142L
B18: hFGF21(33-209)-WT-N-40 kDa bPEG-AL (ligand)
chain: B1 chain with R52K, R55K, R65K, R118K, K122R, P142L, A163S
modifications: 40 kDa branched PEG (aldehyde reagent) on the N-terminal amine
B19: hFGF21(33-209)-V9 (ligand)
chain: B5 chain with A22D, A37V, E50Q, T66A, A107T, R118K, P142L, G170A
B20: hFGF21(33-209)-V60 (ligand)
chain: B5 chain with Q23C, A37V, K73R, A77T, G116C, Q127R
B21: hFGF21(33-209)-V8 (ligand)
chain: B5 chain with Q24E, A37V, E50Q, K65Q, A107T, R118K, P142L, G170A
B22: hFGF21(33-209)-V63 (ligand)
chain: B5 chain with Q23C, A37V, E50Q, K73R, A107T, G116C, Q127R, G170A
B23: hFGF21(33-209)-V76-154C-40 kDa-bPEG-MA (ligand)
chain: B5 chain with Q24E, A37V, N98D, R122C, S126P, P142L
modifications: 40 kDa branched maleimido-PEG on Cys 154 (numbered on SEQ ID NO:1)
B24: hFGF21(33-209)-WT-CH (ligand)
chain: B1 chain with R52K, R55K, R65K, R118K, K122R, P142L, A163S
B25: hFGF21(33-209)-V62 (ligand)
chain: B5 chain with Q23C, A37V, E50Q, K73R, A107T, G116C, R118K, G170A
B26: hFGF21(33-209)-V79 (ligand)
chain: B5 chain with A37V, N98D, R122C, S126P, P142L, G170A
B27: hFGF21(33-209)-V76 (ligand)
chain: B5 chain with Q24E, A37V, N98D, R122C, S126P, P142L
B28: hFGF21(33-209)-V58 (ligand)
chain: B5 chain with A37V, E50Q, K73R, A77T, A107T, G170A
B29: hFGF21(33-209)-V61 (ligand)
chain: B5 chain with Q23C, K73R, G116C, Q127R
B30: hFGF21(33-209)-V83 (ligand)
chain: B5 chain with A37V, H42D, A77T, N98D, R122C, Q127R, P142L, G170A

target: T1, human β-klotho; test: cell-based or functional assay

| Binder | EC50 (nM), pERK In Cell Western | Fold-WT (EC50 of variant / EC50 of FGF21-WT) |
| --- | --- | --- |
| B1 | 8.5 nM | 4.5 fold |
| B2 | 9 nM | 2.9 fold |
| B3 | 4.2 nM | 1.3 fold |
| B4 | 1.9 nM | 1.6 fold |
| B5 | 34 nM | 13 fold |
| B6 | 5.7 nM | 1.5 fold |
| B7 | 22 nM | 5.4 fold |
| B8 | 2.9 nM | 0.8 fold |
| B9 | 1.5 nM | 2.7 fold |
| B10 | 6.5 nM | 1.6 fold |
| B11 | 191 nM | 66 fold |
| B12 | 37 nM | 14 fold |
| B13 | 5.8 nM | 1.7 fold |
| B14 | 2.2 nM | 0.4 fold |
| B15 | 4.5 nM | 1.1 fold |
| B16 | 11 nM | 2.1 fold |
| B17 | 2 nM | 0.3 fold |
| B18 | 20 nM | 6.3 fold |
| B19 | 13 nM | 2.4 fold |
| B20 | 7.6 nM | 2.2 fold |
| B21 | 14 nM | 5 fold |
| B22 | 13 nM | 3.7 fold |
| B23 | 8.3 nM | 2.4 fold |
| B24 | 7.4 nM | 1 fold |
| B25 | 24 nM | 6.8 fold |
| B26 | 2.2 nM | 0.4 fold |
| B27 | 3.4 nM | 0.47 fold |
| B28 | 3.6 nM | 2.6 fold |
| B29 | 22 nM | 6.3 fold |
| B30 | 0.21 nM | 0.38 fold |
